In patent US20060142548A1, “Methods of identifying and designing cell surface receptor inhibitors” (priority 2003, published 2006):

Columns and labels:
[1] = biological target: physiologic ligand; assay: ligand binding to membrane-bound integrin
[2] = biological target: T1, αA domain from CD11a (Homo sapiens, UniProt P20701); conditions: binding at the strand-F/α7 interface; reference 84; cited from earlier work
T1 sequence (P20701 156-327 limits assumed): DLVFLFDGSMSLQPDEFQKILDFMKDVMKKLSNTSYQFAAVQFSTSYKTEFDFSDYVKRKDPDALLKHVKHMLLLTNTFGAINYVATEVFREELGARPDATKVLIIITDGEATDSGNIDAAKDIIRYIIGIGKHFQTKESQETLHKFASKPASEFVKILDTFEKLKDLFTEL

| Compound | fold increase of binding [1] | effect of binding on integrin activation state [2] |
| --- | --- | --- |
| αVβ3 integrin mutant D^126D^127/A^126A^127, membrane-bound (from UniProt P06756 31-1048; P05106 27-788) (receptor) | 1.5 to 2 fold | – |
| CC[C@H](C)C(=O)O[C@H]1C[C@@H](C)C=C2C=C[C@H](C)[C@H](CC[C@@H]3C[C@@H](O)CC(=O)O3)[C@H]21 [lovastatin] | – | locks this integrin in the inactive state |
